Assay results as given in US20070184522A1, “Cell death modulation via antagonists of Fasl and Fas activation” (University of Pittsburgh of the Commonwealth System of …, priority 2004, published 2007).

Experiments:
[1] = system: endogenous Fas from Jurkat and Hepa 1-6 cells; assay: Immunoprecipitation with anti-Fas antibody after adding AlphaMet proteins to Jurkat and Hepa 1-6 cells, Western blot with anti-His; assay type: binding; conditions: proteins added to Jurkat cells and Hepa 1-6 cells
Description: The Met alpha but not beta chain binds to Fas (FIG. 1a). Various regions of the mouse Met cDNA corresponding to the alpha chain or the extra-cellular portion of the Met beta chain were cloned into expression vectors (pCRT7 TOPO/AlphaMet or pCRT7 TOPO/beta chain) and subjected to in vitro transcription/translation by a rabbit reticolucyte lysate translation system. Empty vector was included in each experiment as a control. The expressed proteins were labeled with ^35S-Methionine. Pull down assays were performed using Fas-Fc, a chimeric molecule which lacks the interacellular cytoplasmic domain and protein-A agarose as described in Wang et al., 2002. […] FIG. 1d depicts the amino acid sequence alignment of alpha chain with FasL, determined using the CLUSTALW, SIM+LALNVIEW, and ALIGN at ExPASy Proteomic Tools (available on the internet at us.expresly.org/tools). […] Recombinant His-tagged AlphaMet or its mutant version were expressed in E. coli, purified with chromatography, and subjected to Fas-Fc (lanes labeled Fas) or control IgG pull down experiments, and detected by Western blot using anti-His antibody that recognizes C-terminal His. […] After washing the wells, anti-human […]-HRP conjugates (1:20,000) were added to detect the bound Fas-Fc using TMD dye and the OD value was determined at a wavelength of 450 nm. […]

Fas on Jurkat cells = biological target: T1, Fas on Jurkat cells (Homo sapiens, UniProt P25445); assay: Immunostaining of cell surface FasL binding on Jurkat cells; assay type: cell-based; conditions: 4° C. 30 minutes
T1 construct: endogenous in cells; host or cells: Jurkat
T1 sequence (P25445 26-335): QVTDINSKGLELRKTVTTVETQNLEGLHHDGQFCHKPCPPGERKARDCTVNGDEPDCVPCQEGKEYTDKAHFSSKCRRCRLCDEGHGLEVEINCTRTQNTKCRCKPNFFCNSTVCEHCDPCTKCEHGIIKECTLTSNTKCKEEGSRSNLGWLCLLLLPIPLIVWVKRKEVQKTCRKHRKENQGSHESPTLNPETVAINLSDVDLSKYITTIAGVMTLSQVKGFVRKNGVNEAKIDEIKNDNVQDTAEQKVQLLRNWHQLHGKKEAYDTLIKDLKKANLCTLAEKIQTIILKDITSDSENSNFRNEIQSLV
Protocol: This antibody also recognizes Fas-Fc which is also tagged at the C-terminus by His. In FIG. 2b, a fixed amount of purified recombinant Fas-ligand was added to Fas-Fc in the absence or presence of increasing amounts of AlphaMet as indicated. Samples were subjected to pull down using proteinA agarose followed by Western blot using a polyclonal rabbit anti-FasL antibody. […] Fas ligand (1 μg/ml) was coated in the wells of a microtiter plate (triplicate wells) then 1 μg/ml of Fas-Fc was added in the absence or presence of an increasing amount of the indicated polypeptide. A 13 mer YLGA polypeptide derived from FasL also was synthesized and used. The control peptide was a scrambled 13 mer. Anti human IgM-HRP conjugates were used to detect the bound Fas-Fc. […] One-way ANOVA was carried out for determination of statistical significance. […] Cells (3×10^5) were plated in 24-well plates having Poly-L-Lysine pre-treated cover glass. 2 μg/ml of Fas ligand was added and the cells were incubated for 30 min on ice. Cells were then washed by PBS twice, and were subjected to immunostaining using anti-Fas ligand antibody and fluorescent microscopy. […]
Abrogation of Fas-FasL binding by the presence of the synthetic polypeptides corresponding to the AlphaMet YLGA (SEQ ID NO:1) motif was then analyzed. […]

B1: alpha subunit of Met (AlphaMet), amino acid residues 1 to 306, His-tagged (receptor, mouse)
chain: MKAPTVLAPGILVLLLSLVQRSHGECKEALVKSEMNVNMKYQLPNFTAETPIQNVVLHGHHIYLGATNYIYVLNDKDLQKVSEFKTGPVLEHPDCLPCRDCSSKANSSGGVWKDNINMALLVDTYYDDQLISCGSVNRGTCQRHVLPPDNSADIQSEVHCMFSPEEESGQCPDCVVSALGAKVLLSEKDRFINFFVGNTINSSYPPGYSLHSISVRRLKETQDGFKFLTDQSYIDVLPEFLDSYPIKYIHAFESNHFIYFLTVQKETLDAQTFHTRIIRFCSVDSGLHSYMEMPLECILTEKRRKRHHHHHH
In the case of B1, the “co-precipitation with anti-Fas” value [1] is reported as “could be co-precipitated with anti-Fas” and the “cell surface FasL binding to Fas” value (Fas on Jurkat cells) is reported as “blocked”.
